In the RNAGym collection of RNA variant scans (doi:10.1101/gr.219683.116):

B1: mRNA-splicing (parent)
chain: AGUUGCUGCUGGGAGCUCCAGCACAGUGAAAUGGACAGAAGGGCAGAGCAA

Variants of: B1
Test: exon inclusion enrichment index; higher = more inclusion; WT1 exon 5 minigene, HEK293

Row | Variant | exon inclusion enrichment index
1 | AGUUGCUACUGGGAGCUCCAGCACAGUGAAAUGGACAGAAGGGCAGAGCAA [G8A] | 1.09
2 | AGUUGCUCCUGGGAGCUCCAGCACAGUGAAAUGGACAGAAGGGCAGAGCAA [G8C] | 1.33
3 | AGUUGCUUCUGGGAGCUCCAGCACAGUGAAAUGGACAGAAGGGCAGAGCAA [G8U] | 1.2
4 | AGUUGCAUCUGGGAGCUCCAGCACAGUGAAAUGGACAGAAGGGCAGAGCAA [U7A G8U] | 1.83
5 | AGUUGCAACUGGGAGCUCCAGCACAGUGAAAUGGACAGAAGGGCAGAGCAA [U7A G8A] | 1.49
6 | AGUUGCACCUGGGAGCUCCAGCACAGUGAAAUGGACAGAAGGGCAGAGCAA [U7A G8C] | 1.67
7 | AGUUGCCGACGGGAGCUCCAGCACAGUGAAAUGGACAGAAGGGCAGAGCAA [U7C C9A U10C] | 3.46
8 | AGUUGCCGAAGGGAGCUCCAGCACAGUGAAAUGGACAGAAGGGCAGAGCAA [U7C C9A U10A] | 1.64
9 | AGUUGCGGAUGGGAGCUCCAGCACAGUGAAAUGGACAGAAGGGCAGAGCAA [U7G C9A] | 1.94
10 | AGUUGCUGGCGGGAGCUCCAGCACAGUGAAAUGGACAGAAGGGCAGAGCAA [C9G U10C] | 0.22
11 | AGUUGCUGGAGGGAGCUCCAGCACAGUGAAAUGGACAGAAGGGCAGAGCAA [C9G U10A] | 0.0101
12 | AGUUGCUGGGGGGAGCUCCAGCACAGUGAAAUGGACAGAAGGGCAGAGCAA [C9G U10G] | 0.0139
13 | AGUUGCGGCUGGGAGCUCCAGCACAGUGAAAUGGACAGAAGGGCAGAGCAA [U7G] | 0.183
14 | AGUUGCCGCUGGGAGCUCCAGCACAGUGAAAUGGACAGAAGGGCAGAGCAA [U7C] | 0.538
15 | AGUUGCAGCUGGGAGCUCCAGCACAGUGAAAUGGACAGAAGGGCAGAGCAA [U7A] | 0.394
16 | AGUUGCUAAUGGGAGCUCCAGCACAGUGAAAUGGACAGAAGGGCAGAGCAA [G8A C9A] | 0.383
17 | AGUUGCUAUUGGGAGCUCCAGCACAGUGAAAUGGACAGAAGGGCAGAGCAA [G8A C9U] | 0.355
18 | AGUUGCUAGUGGGAGCUCCAGCACAGUGAAAUGGACAGAAGGGCAGAGCAA [G8A C9G] | 0.0723
19 | AGUUGCGGAAGGGAGCUCCAGCACAGUGAAAUGGACAGAAGGGCAGAGCAA [U7G C9A U10A] | 1
20 | AGUUGCGGACGGGAGCUCCAGCACAGUGAAAUGGACAGAAGGGCAGAGCAA [U7G C9A U10C] | 2
21 | AGUUGCAUAUGGGAGCUCCAGCACAGUGAAAUGGACAGAAGGGCAGAGCAA [U7A G8U C9A] | 0.565
22 | AGUUGCUCUUGGGAGCUCCAGCACAGUGAAAUGGACAGAAGGGCAGAGCAA [G8C C9U] | 0.216
23 | AGUUGCUCGUGGGAGCUCCAGCACAGUGAAAUGGACAGAAGGGCAGAGCAA [G8C C9G] | 0.884
24 | AGUUGCUCAUGGGAGCUCCAGCACAGUGAAAUGGACAGAAGGGCAGAGCAA [G8C C9A] | 0.365
25 | AGUUGUGGACGGGAGCUCCAGCACAGUGAAAUGGACAGAAGGGCAGAGCAA [C6U U7G C9A U10C] | 1.45
26 | AGUUGUGGAAGGGAGCUCCAGCACAGUGAAAUGGACAGAAGGGCAGAGCAA [C6U U7G C9A U10A] | 0.189

Row | Variant | exon inclusion enrichment index
27 | AGUUGCUGGUGGGAGCUCCAGCACAGUGAAAUGGACAGAAGGGCAGAGCAA [C9G] | 0.154
28 | AGUUGCUGUUGGGAGCUCCAGCACAGUGAAAUGGACAGAAGGGCAGAGCAA [C9U] | 1.36
29 | AGUUGCUGAUGGGAGCUCCAGCACAGUGAAAUGGACAGAAGGGCAGAGCAA [C9A] | 1.96
30 | AGUUGCCACAGGGAGCUCCAGCACAGUGAAAUGGACAGAAGGGCAGAGCAA [U7C G8A U10A] | 0.437
31 | AGUUGCCACCGGGAGCUCCAGCACAGUGAAAUGGACAGAAGGGCAGAGCAA [U7C G8A U10C] | 2.58
32 | AGUUGCUUGUGGGAGCUCCAGCACAGUGAAAUGGACAGAAGGGCAGAGCAA [G8U C9G] | 0.455
33 | AGUUGCUUUUGGGAGCUCCAGCACAGUGAAAUGGACAGAAGGGCAGAGCAA [G8U C9U] | 0.3
34 | AGUUGCUUAUGGGAGCUCCAGCACAGUGAAAUGGACAGAAGGGCAGAGCAA [G8U C9A] | 0.386
35 | AGUUGCUGACGGGAGCUCCAGCACAGUGAAAUGGACAGAAGGGCAGAGCAA [C9A U10C] | 2.65
36 | AGUUGCUGAGGGGAGCUCCAGCACAGUGAAAUGGACAGAAGGGCAGAGCAA [C9A U10G] | 0.829
37 | AGUUGCUGAAGGGAGCUCCAGCACAGUGAAAUGGACAGAAGGGCAGAGCAA [C9A U10A] | 0.914
38 | AGUUGUGGAUGGGAGCUCCAGCACAGUGAAAUGGACAGAAGGGCAGAGCAA [C6U U7G C9A] | 0.522
39 | AGUUGCUGUCGGGAGCUCCAGCACAGUGAAAUGGACAGAAGGGCAGAGCAA [C9U U10C] | 2.55
40 | AGUUGCUGUGGGGAGCUCCAGCACAGUGAAAUGGACAGAAGGGCAGAGCAA [C9U U10G] | 0.493
41 | AGUUGCUGUAGGGAGCUCCAGCACAGUGAAAUGGACAGAAGGGCAGAGCAA [C9U U10A] | 0.0452
42 | AGUUGCCGCCGGGAGCUCCAGCACAGUGAAAUGGACAGAAGGGCAGAGCAA [U7C U10C] | 2.76
43 | AGUUGCAGAAGGGAGCUCCAGCACAGUGAAAUGGACAGAAGGGCAGAGCAA [U7A C9A U10A] | 0.589
44 | AGUUGCAGACGGGAGCUCCAGCACAGUGAAAUGGACAGAAGGGCAGAGCAA [U7A C9A U10C] | 1.94
45 | AGUUGCCUCUGGGAGCUCCAGCACAGUGAAAUGGACAGAAGGGCAGAGCAA [U7C G8U] | 1.05
46 | AGUUGCCACUGGGAGCUCCAGCACAGUGAAAUGGACAGAAGGGCAGAGCAA [U7C G8A] | 1.44
47 | AGUUGCCCCUGGGAGCUCCAGCACAGUGAAAUGGACAGAAGGGCAGAGCAA [U7C G8C] | 1.02
48 | AGUUGCUCUCGGGAGCUCCAGCACAGUGAAAUGGACAGAAGGGCAGAGCAA [G8C C9U U10C] | 0.579
49 | AGUUGCGCCUGGGAGCUCCAGCACAGUGAAAUGGACAGAAGGGCAGAGCAA [U7G G8C] | 2.05
50 | AGUUGCGACUGGGAGCUCCAGCACAGUGAAAUGGACAGAAGGGCAGAGCAA [U7G G8A] | 2.02
51 | AGUUGCGUCUGGGAGCUCCAGCACAGUGAAAUGGACAGAAGGGCAGAGCAA [U7G G8U] | 1.91
